Assay results from patent publication US20250250330A1 (REVOPSIS THERAPEUTICS, published 2025).

T1: His-tagged recombinant human ANG-2 (AcroBiosystems, Cat #AN2-H52H4) (human, UniProt O15123 275-496)
T1 construct: also called rhANG-2; rhANG-2-His; not shown: His tag
T1 sequence (looked up): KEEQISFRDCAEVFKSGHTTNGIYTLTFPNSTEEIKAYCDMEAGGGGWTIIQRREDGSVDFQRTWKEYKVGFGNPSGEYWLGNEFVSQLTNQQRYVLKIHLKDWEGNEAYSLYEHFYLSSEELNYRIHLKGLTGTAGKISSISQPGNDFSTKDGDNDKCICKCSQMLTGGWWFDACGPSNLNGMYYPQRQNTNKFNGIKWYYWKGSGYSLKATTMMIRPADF


Columns and labels:
[1] = biological target: T2, Recombinant human VEGF165 (Peprotech, Cat #100-20) (human, UniProt P15692-4 27-191); experiment: ELISA on rhVEGF165; biotinylated anti-VpreB antibody and streptavidin-HRP detection
T2 construct: Bought protein; also called rhVEGF165; rh VEGF165

[2] = biological target: T1, His-tagged recombinant human ANG-2 …; experiment: ELISA on rhANG-2; biotinylated anti-VpreB antibody and streptavidin-HRP detection
Protocol: SgG1 was diluted in blocking buffer at a starting concentration of 10 nM. Sab and scSv were diluted in blocking buffer at a starting concentration of 100 nM. They were then 1:3 serial diluted.

T2 sequence (P15692 other isoform, or with tags, fused parts or gaps limits assumed): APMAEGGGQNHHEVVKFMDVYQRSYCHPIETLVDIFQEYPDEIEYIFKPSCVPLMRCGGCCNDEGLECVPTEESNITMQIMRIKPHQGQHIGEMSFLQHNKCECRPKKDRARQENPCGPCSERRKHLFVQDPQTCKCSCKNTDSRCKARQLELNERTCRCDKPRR

| EC50 [1] | EC50 [2] | Binder |
| --- | --- | --- |
| 0.0063 nM | – | RP-014_VEGF-A_Sab (Fab, V domains shown, also called anti-VEGF-A Sab; not shown: CH1 domain) VH: QVQLVQSGAEVKKPGASVKVSCKASGYTFSIYTIHWVRQAPGQGLEWMGGINPYNGNTKYAQKFQGRVTMTRDTSISTAYMELSRLRSDDTAVYYCAKAPAVFWWTGLDYWGQGTLVTVSS VL: QPVLHQPPAMSSALGTTIRLTCTLRNDHDIGVYSVYWYQQRPGHPPRFLLRYFSQSDKSQGPQVPPRFSGSKDVARNRGYLSISELQPEDEAMYYCAMGARSSVTHVFGSGTQLTVLS |
| – | 0.0485 nM | RP-017_ANG-2_Sab (Fab, V domains shown, also called anti-ANG-2 Sab; not shown: CH1 domain) VH: EVQLVESGGGLVKPGGSLRLSCAASGFTFSSYGMHWVRQAPGKGLEWVAGISADSGDKNYADSVKGRFTISRDNAKNSLYLQMNSLRAEDTAVYYCAKEFISWIYTFDYLDYWGQGTLVTVSS VL: QPVLHQPPAMSSALGTTIRLTCTLRNDHDIGVYSVYWYQQRPGHPPRFLLRYFSQSDKSQGPQVPPRFSGSKDVARNRGYLSISELQPEDEAMYYCAMGARSSVTHVFGSGTQLTVLS |
